The text below walks through data of paper doi:10.1101/2021.05.06.443019.

The target in the assay is ovine rBAT (purified with b^0,+AT) (ovine). Kind of assay: cryo-EM structure.

The term stoichiometry N denotes the number of molecules, sites or subunits per partner or assembly. As to “ovine rBAT (purified with b^0,+AT) (from UniProt A0ACI6R3A5 1-685) (natural protein)”, the stoichiometry N is 2.
